Molecular target: MBP-tagged full-length CYRI-A (mouse) (UniProt Q8BHZ0)
Assay: SPR

Sequence of MBP-tagged full-length CYRI-A (mouse) (Q8BHZ0 whole entry): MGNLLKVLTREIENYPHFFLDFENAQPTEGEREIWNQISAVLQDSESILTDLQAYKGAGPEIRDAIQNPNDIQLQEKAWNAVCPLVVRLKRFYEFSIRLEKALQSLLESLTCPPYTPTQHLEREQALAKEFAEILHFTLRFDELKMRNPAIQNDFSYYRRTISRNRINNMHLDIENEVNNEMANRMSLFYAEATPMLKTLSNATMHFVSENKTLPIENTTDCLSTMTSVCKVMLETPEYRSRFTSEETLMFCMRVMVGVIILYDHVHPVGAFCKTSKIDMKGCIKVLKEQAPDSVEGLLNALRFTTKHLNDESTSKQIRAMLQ

Kd: 2470 nM
Substance: untagged full-length RAC1 Q61L (from UniProt P63000 1-192) (enzyme; other documents disagree on this pair)

— article doi:10.1101/2020.12.04.411645
